# Measured values: paper doi:10.1101/2020.01.21.914671
# Values joined by “and” are separate entries in the source; they are usually repeats but may differ in a detail not shown here. Equal values may be shown once.
# Assays:
# [1] = target: TANV16L (tanapoxvirus 16L) lacking the C-terminal 23 residues, wild type (tanapoxvirus); assay: AUC
# [2] = target: human Bax BH3 motif peptide (28-mer) (human); assay: ITC
# [3] = target: human Bak BH3 motif peptide (26-mer) (human); assay: ITC
substance,measurement,setting,value
"TANV16L (tanapoxvirus 16L) lacking the C-terminal 23 residues, wild type (domain or fragment)",ratio of monomer:dimer,[1],3.5 :1
same,stoichiometry N,[1],2 and 4
same,Kd,[2],70 nM
same,Kd,[3],38 nM
